The record followed here is patent US20030167487A1 (Takeda / Millennium, published 2003).

The target in test [1] is T1, human vWf (human, UniProt P04275 764-2813).
T1 construct: Plasma-type multimeric protein; It was coated on plates (25-500 ng/well) in the adhesion assay and FITC-labeled (F/P ratio 1-4) in the flow cytometry assay; also called FITC˜vWf
Nature of the test: flow cytometry, FITC-vWf on mouse platelets in PRP stimulated with ADP and epinephrine (no botrocetin).

Test [2] deals with T1, human vWf. The test can be described thus: platelet adhesion to vWf-coated 96-well plates (25-500 ng/well) with botrocetin 4 µM; bound platelets read by acid phosphatase activity. On the procedure: 96-well plates were coated with various concentrations (25-500 ng/well) of human vWf overnight at 4° C. Pooled WP from mice were resuspended in Mg²⁺-free CFTH buffer (1.2×10⁸/mL) containing botrocetin (4 μM), and incubated immobilized human vWf for 1 hour at room temp. Following two PBS washes, bound platelets were lysed and intracellular acid phosphatase activity was quantitated calorimetrically using the substrate pNPP (Sigma).

B1: mouse αIIbβ3 on platelets (receptor)
chain 1: LNLDSEKFSVYAGPNGSHFGFSVDFHKDKHGSVSIVVGAPRALNASQEETGAVFLCPWKANGGKCNPLLFDLRDETRNLGFQIFQTFKTGQGLGASVVSWNDVIVACAPWQHWNVLEKRDEAEKTPVGGCFLAQLQSGGRAEYSPCRANTMSSVYAESFRGDKRYCEAGFSLAVTQAGELVLGAPGGYFFLGLLARVPIENIISSYRPGTLLWHVSNQRFTYDNSNPVFFDGYRGYSVAVGEFDGDPSTTEYVSGAPTWSWTLGAVEILDSYYQPLHRLHGEQMASYFGHSVAVTDVNGDGRHDLLVGAPLYMESRADRKLAEVGRVYLFLQPKGPQALSTPTLLLTGTQLYGRFGSAIAPLGDLNRDGYNDIAVAAPYGGPSGQGQVLIFLGQSEGLSPRPSQVLDSPFPTGSGFGFSLRGAVDIDDNGYPDLIVGAYGASKVAVYRAQPVVMATVQLMVQDSLNPTLKNCVLDQTKTPVSCFNIQMCVGATGHNIPQKLHLKAELQLDLQKPRQGRRVLLLASQQASLTLSLDLGGRDKPICHTTGAFLRDEADFRDKLSPIVLSLNVSLPPEETGGAPAVVLHGETHVQEQTRIILDCGEDDLCVPQLRLTATAGDSPLLIGADNVLELKIEAANDGEGAYEAELAVHLPPGAHYMRALSNIEGFERLVCTQKKENESRVALCELGNPMKKDTRIGITMLVSVENLEEAGESVSFQLQVRSKNSQNPNSKVVMLPVAIQAEATVELRGNSFPASLVVAAEEGDREQEDLDRWVSRLEHTYELHNIGPGTVNGLRLLIHIPGQSQPSDLLYILDVQPQGGLLCSTQPSPKVDWKLSTPSPSSIRPVHHQRERRQAFLQGPKPGQQDPVLVSCDGSASCTVVECELREMVRGQRAMVTVQVMLGLSSLRQRPQEQFVLQSHAWFNVSSLPYSVPVVSLPSGQARVQTQLLRALEERAIPVWWVLVGVLGGLLLLTLLVLAMWKAGFFKRNRPPLEEDEEEE
chain 2: ESNICTTRGVNSCQQCLAVSPVCAWCSDETLSQGSPRCNLKENLLKDNCAPESIEFPVSEAQILEARPLSSKGSGSSAQITQVSPQRIALRLRPDDSKIFSLQVRQVEDYPVDIYYLMDLSFSMKDDLSSIQTLGTKLASQMRKLTSNLRIGFGAFVDKPVSPYMYISPPQAIKNPCYNMKNACLPMFGYKHVLTLTDQVSRFNEEVKKQSVSRNRDAPEGGFDAIMQATVCDEKIGWRNDASHLLVFTTDAKTHIALDGRLAGIVLPNDGHCHIGTDNHYSASTTMDYPSLGLMTEKLSQKNINLIFAVTENVVSLYQNYSELIPGTTVGVLSDDSSNVLQLIVDAYGKIRSKVELEVRDLPEELSLSFNATCLNNEVIPGLKSCVGLKIGDTVSFSIEAKVRGCPQEKEQSFTIKPVGFKDSLTVQVTFDCDCACQAFAQPSSPRCNNGNGTFECGVCRCDQGWLGSMCECSEEDYRPSQQEECSPKEGQPICSQRGECLCGQCVCHSSDFGKITGKYCECDDFSCVRYKGEMCSGHGQCNCGDCVCDSDWTGYYCNCTTRTDTCMSTNGLLCSGRGNCECGSCVCVQPGSYGDTCEKCPTCPDACSFKKECVECKKFNRGTLHEENTCSRYCRDDIEQVKELTDTGKNAVNCTYKNEDDCVVRFQYYEDTSGRAVLYVVEEPECPKGPDILVVLLSVMGAILLIGLATLLIWKLLITIHDRKEFAKFEEERARAKWDTANNPLYKEATSTFTNITYRGT
notes: whole, on cells; Native receptor on washed mouse platelets of GP V wt, +/- and -/- genotype; also called mouse fibrinogen receptor; GPIIb-IIIa
B1: in the test with human vWf [1], the binding result was “no binding”.

B2: mouse GP Ib on platelets (receptor)
chain 1: QHTCSISKVTSLLEVNCENKKLTALPADLPADTGILHLGENQLGTFSTASLVHFTHLTYLYLDRCELTSLQTNGKLIKLENLDLSHNNLKSLPSLGWALPALTTLDVSFNKLGSLSPGVLDGLSQLQELYLQNNDLKSLPPGLLLPTTKLKKLNLANNKLRELPSGLLDGLEDLDTLYLQRNWLRTIPKGFFGTLLLPFVFLHANSWYCDCEILYFRHWLQENANNVYLWKQGVDVKDTTPNVASVRCANLDNAPVYSYPGKGCPTSSGDTDYDDYDDIPDVPATRTEVKFSTNTKVHTTHWSLLAAAPSTSQDSQMISLPPTHKPTKKQSTFIHTQSPGFTTLPETMESNPTFYSLKLNTVLIPSPTTLEPTSTQATPEPNIQPMLTTSTLTTPEHSTTPVPTTTILTTPEHSTIPVPTTAILTTPKPSTIPVPTTATLTTLEPSTTPVPTTATLTTPEPSTTLVPTTATLTTPEHSTTPVPTTATLTTPEHSTTPVPTTATLTTPEPSTTLTNLVSTISPVLTTTLTTPESTPIETILEQFFTTELTLLPTLESTTTIIPEQNSFLNLPEVALVSSDTSESSPFLNSDFCCFLPLGFYVLGLLWLLFASVVLILLLTWTWHVTPHSLDMEQSAALATSTHTTSLEVQRARQVTMPRAWLLFLQGSLPTFRSSLFLWVRPNGRVGPLVAGRRPSALSQGRGQDLLGTVGIRYSGHSL
chain 2: PAPCSCAGTLVDCGRRGLTWASLPAAFPPDTTELVLTGNNLTALPPGLLDALPALRAAHLGANPWRCDCRLLPLRAWLAGRPERAPYRDLRCVAPPALRGRLLPYVAEDELRAACAPGLLCWGALVAQLALLVLGLLHALLLALLLGRLRRLRARARARSIQEFSLTAPLVAESARGGAS
notes: whole, on cells; Native receptor on mouse platelets of GP V wt, +/- and -/- genotype, present there in complex with GP IX (and with GP V in wt); also called GP Ib-IX (complex on platelets)
On to B2, for which the binding result in the test with human vWf [2] is “binds”.
